This note sets out measurements from patent publication US20240123058A1 (XIAMEN UNIVERSITY, published 2024).

In experiment [1] the target is T1, EBV gB protein ectodomain (24-683 aa) of the substituted M81 strain gB protein, C-terminal 6×His tag (EBV M81 strain, UniProt P0C762 24-683).
T1 construct: Expressed in 293F cells; also called EBV gB ectodomain
T1 chain: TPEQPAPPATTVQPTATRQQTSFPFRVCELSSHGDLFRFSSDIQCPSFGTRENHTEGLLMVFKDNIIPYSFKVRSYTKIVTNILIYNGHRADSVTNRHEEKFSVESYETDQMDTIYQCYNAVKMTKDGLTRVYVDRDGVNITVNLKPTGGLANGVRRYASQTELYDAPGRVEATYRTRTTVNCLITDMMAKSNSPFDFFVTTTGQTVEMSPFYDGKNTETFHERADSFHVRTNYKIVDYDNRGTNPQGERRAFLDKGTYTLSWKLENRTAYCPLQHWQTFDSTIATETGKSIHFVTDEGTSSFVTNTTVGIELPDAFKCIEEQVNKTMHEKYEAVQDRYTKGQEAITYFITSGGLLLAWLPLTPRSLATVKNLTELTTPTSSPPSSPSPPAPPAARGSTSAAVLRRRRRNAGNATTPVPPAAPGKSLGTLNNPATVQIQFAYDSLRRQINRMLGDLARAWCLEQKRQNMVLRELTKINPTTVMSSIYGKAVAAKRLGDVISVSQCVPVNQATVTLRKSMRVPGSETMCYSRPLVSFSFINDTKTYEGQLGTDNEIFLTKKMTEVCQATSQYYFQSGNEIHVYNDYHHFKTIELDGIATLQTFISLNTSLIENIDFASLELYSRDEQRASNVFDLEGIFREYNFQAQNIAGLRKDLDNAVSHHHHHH
Briefly: SPR, Biacore 8K, antibody captured on Protein A chip, gB as analyte. Background: In SPR one partner is held on a chip, and binding of the other changes the refractive index at the surface.

Experiment [2] has as its target T1, EBV gB protein ectodomain (24-683 aa) …. As to the kind of experiment: SPR (Biacore 8K): antibody captured on a Protein A chip, EBV-gB as analyte at 1.5625-200 nM.
For experiment [3] the target is unchanged. Briefly: indirect ELISA, coated gB ectodomain.
The next experiment addresses T2, gB-295~390aa.
T2 construct: as f3
T2 HBc149/mut carrier with inserted gB segment: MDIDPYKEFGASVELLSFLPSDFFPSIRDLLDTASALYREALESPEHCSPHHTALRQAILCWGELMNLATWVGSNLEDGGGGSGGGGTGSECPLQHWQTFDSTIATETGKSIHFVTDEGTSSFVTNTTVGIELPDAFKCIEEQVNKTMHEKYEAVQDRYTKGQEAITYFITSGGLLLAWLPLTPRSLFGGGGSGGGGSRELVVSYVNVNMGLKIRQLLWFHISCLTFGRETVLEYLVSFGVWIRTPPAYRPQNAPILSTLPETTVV
As to the kind of experiment: Western blot of gB segments displayed on HBc149, reduced and heated. In general terms: Immunoblotting shows a protein as a band on a membrane.

For experiment [4], the target named is T1, EBV gB protein ectodomain (24-683 aa) …. Briefly: indirect ELISA on coated wild-type gB ectodomain, 3A5 titrated [right panel]. (An ELISA detects its analyte on a solid surface through an enzyme-linked reagent.)
The target of experiment [5] is T3, wild-type full-length EBV gB protein expressed on cells (EBV M81 strain, UniProt P0C762 22-857).
T3 construct: also called gB protein expressed by cells; natural gB protein
T3 chain: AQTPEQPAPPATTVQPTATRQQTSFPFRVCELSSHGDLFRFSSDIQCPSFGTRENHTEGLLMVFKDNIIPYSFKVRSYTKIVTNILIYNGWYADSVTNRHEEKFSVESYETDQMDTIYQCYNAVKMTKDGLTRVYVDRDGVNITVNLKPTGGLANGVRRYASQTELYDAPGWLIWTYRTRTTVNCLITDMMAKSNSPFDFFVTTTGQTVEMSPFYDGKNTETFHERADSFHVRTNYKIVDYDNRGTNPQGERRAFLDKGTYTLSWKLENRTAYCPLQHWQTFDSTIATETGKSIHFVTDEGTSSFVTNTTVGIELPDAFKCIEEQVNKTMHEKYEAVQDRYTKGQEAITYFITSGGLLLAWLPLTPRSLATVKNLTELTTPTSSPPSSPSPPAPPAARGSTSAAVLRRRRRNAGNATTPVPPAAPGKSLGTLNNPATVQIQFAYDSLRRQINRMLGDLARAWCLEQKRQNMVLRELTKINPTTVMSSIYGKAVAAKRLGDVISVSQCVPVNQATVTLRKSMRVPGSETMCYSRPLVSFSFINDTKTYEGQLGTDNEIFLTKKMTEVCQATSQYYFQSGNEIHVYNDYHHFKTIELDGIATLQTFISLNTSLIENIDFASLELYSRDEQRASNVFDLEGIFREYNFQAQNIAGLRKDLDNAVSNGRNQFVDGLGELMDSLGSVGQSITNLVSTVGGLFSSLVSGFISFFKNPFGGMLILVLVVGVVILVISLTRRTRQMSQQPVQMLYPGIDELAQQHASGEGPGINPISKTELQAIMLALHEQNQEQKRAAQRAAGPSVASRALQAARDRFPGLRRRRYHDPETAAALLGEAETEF
As to the kind of experiment: immunofluorescence on MDCK cells transfected with full-length wild-type gB.

Experiment [6] deals with gB protein on EBV virions used in the neutralization models (Epstein-Barr virus). Briefly: cell-based or functional assay.
Experiment [7] has as its target T4, HBc149 protein chimerized with gB-331˜367aa epitope.
T4 construct: also called Recombination protein gB aa331-367 + HBc149/mut; HBc149 chimeric protein
T4 chain: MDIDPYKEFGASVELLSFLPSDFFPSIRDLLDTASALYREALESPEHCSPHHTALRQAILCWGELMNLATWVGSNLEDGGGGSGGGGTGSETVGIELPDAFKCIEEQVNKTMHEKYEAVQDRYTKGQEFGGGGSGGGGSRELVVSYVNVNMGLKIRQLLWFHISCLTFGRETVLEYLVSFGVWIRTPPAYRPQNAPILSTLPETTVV
Briefly: indirect ELISA on the coated HBc149 protein chimerized with gB-331~367aa, antibody titrated.

In another experiment the target is T5, gB-528~616aa.
T5 construct: as f3
T5 HBc149/mut carrier with inserted gB segment: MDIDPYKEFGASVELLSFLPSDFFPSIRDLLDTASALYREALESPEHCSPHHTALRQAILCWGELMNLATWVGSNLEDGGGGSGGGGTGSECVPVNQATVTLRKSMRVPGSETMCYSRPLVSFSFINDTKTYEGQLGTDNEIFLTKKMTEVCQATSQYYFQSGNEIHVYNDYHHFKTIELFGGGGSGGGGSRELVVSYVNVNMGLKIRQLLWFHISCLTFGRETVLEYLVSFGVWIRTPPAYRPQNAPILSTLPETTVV
As to the kind of experiment: Western blot of gB segments displayed on HBc149, reduced and heated.

B1: rabbit monoclonal antibody 3A5 (antibody, V domains shown)
VH: QSVKESGGRLVTPGTPLTLTCTVSGFSLSSYEMGWVRQAPGEGLEWIGTISTGGSSYYASWAKGRFTISRTSTTVDLKMTSLTTADTATYFCARGYGGYGIGAGYFNIWGPGTLVTVSS
VL: ALVMTQTPSSVSEPVGGTVTIKCQASQSISSYLAWYQRKPGQRPKLLIYGTSTLASGVPSRFIGSGSGTDYTLTISDLECDDAATYYCQQGFSTSNVYNSFGGGTKVDIK
notes: Recombinant rabbit monoclonal antibody expressed in 293F cells; also called 3A5 antibody
For the molecule B1, binding in experiment [1] was characterised by a dissociation constant (Kd) of 411 pM. In addition, in experiment [2], the koff is 0.000266 s⁻¹ and the kon stood at 648000 M⁻¹ s⁻¹. This molecule registered an EC50 in experiment [3] of 0.0052 µg/mL. In addition, the binding result with gB-295~390aa is on record as “no binding (tested: 1 µg/mL)”. The “EC50 (read off the curve)” value in experiment [4] was around 0.005 µg/mL. In addition, in experiment [5], the binding result is “binds”. In addition, in experiment [6], the “IC50 on the B cell infection model” value stood at 4.9 µg/mL and the “IC50 on the epithelial cell infection model” value stood at 0.31 µg/mL.

B2: rabbit monoclonal antibody 3A3 (antibody, V domains shown)
VH: QSVKESGGRLVTPGTPLTLTCTVSGFSLSSYAMSWVRQAPGKGLEYIGVIYASGSTYYASWAKGRFTISRTATTVDLKITSPTTEDTATYFCGRGVSTNMWGPGTLVTVSS
VL: DLVMTQTPSSVSAAVGGTVTIKCQASQSLGGGLAWYQQKPGQRPKLLIYSASTLESGVPSRFRGSGSGTEFTLTISDLECADAATYYCQSAYGPTSNGLFNAFGGGTKVVIK
notes: Recombinant rabbit monoclonal antibody expressed in 293F cells; also called 3A3 antibody
As to B2, in experiment [7], the binding result is given as “binds”. In addition, binding in experiment [1] was put at a Kd of 863 pM. In [2], this molecule yielded a koff of 0.000162 s⁻¹ and a kon of 188000 M⁻¹ s⁻¹. A half-maximal response in experiment [3] (EC50) required 0.007 µg/mL. The binding result with gB-528~616aa is “no binding (tested: 1 µg/mL)”. For the same molecule, the binding result in experiment [5] is reported as “binds”. Besides, in [6], the “IC50 on the B cell infection model” value turned out to be 2.97 µg/mL and the “IC50 on the epithelial cell infection model” value turned out to be 0.07 µg/mL.

As a reminder, the Kd is a measure of binding affinity in units of concentration. Read a low Kd as a tighter complex. Usually koff stands for the first-order rate constant of dissociation. Higher therefore signals fast dissociation. For orientation: kon means a measure of how fast the partners come together. Higher therefore signals faster complex formation. By EC50 is commonly meant the midpoint of the concentration-response curve. Read a low EC50 as greater potency. The term EC50 (read off the curve) denotes the midpoint of the concentration-response curve. Higher therefore signals weaker potency.
